Patent US20070003546A1

What follows are substances tested against extracellular region of human V158 FcγRIIIa fused with glutathione S-Transferase (GST) (human) (UniProt P08637) (assay: AlphaScreen competition).
Chain of extracellular region of human V158 FcγRIIIa fused with glutathione S-Transferase (GST) (human) (P08637 17-208 F176V): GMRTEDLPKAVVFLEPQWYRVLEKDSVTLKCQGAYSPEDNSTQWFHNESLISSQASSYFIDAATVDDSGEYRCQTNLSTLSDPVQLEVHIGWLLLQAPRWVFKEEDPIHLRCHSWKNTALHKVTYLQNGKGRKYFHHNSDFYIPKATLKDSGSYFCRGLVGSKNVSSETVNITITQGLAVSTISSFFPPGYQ
In the case of alemtuzumab A298H (antibody), the FcγRIIIa Fold is reported as 0.27 fold.
With trastuzumab E233D (antibody) the FcγRIIIa Fold was 0.85 fold.
For trastuzumab E272Y (antibody), the FcγRIIIa Fold was 8.7 fold.
With trastuzumab E283R (antibody) the FcγRIIIa Fold was 0.67 fold.
trastuzumab E318R (antibody) was tested, and the FcγRIIIa Fold was 1.06 fold.
Substance trastuzumab E333H (antibody) has a FcγRIIIa Fold of 0.75 fold.
trastuzumab E333T (antibody) showed a FcγRIIIa Fold of 0.78 fold.
trastuzumab F275W (antibody) showed a FcγRIIIa Fold of 1.11 fold.
trastuzumab K274E (antibody) gave a FcγRIIIa Fold of 6.11 fold.
trastuzumab K274L (antibody) was tested, and the FcγRIIIa Fold was 1.09 fold.
Work on trastuzumab K274R (antibody) yielded a FcγRIIIa Fold of 1.41 fold.
Substance trastuzumab K274T (antibody) has a FcγRIIIa Fold of 1.41 fold.
In the case of trastuzumab K274Y (antibody), the FcγRIIIa Fold is reported as 1.06 fold.
trastuzumab K326I (antibody) gave a FcγRIIIa Fold of 1.43 fold.
trastuzumab K326T (antibody) gave a FcγRIIIa Fold of 1.88 fold.
Work on trastuzumab L234I/L235D (antibody) yielded a FcγRIIIa Fold of 0.07 fold.
trastuzumab N276E (antibody) showed a FcγRIIIa Fold of 0.87 fold.
Substance trastuzumab N276R (antibody) has a FcγRIIIa Fold of 0.66 fold.
trastuzumab N276S (antibody) showed a FcγRIIIa Fold of 0.41 fold.
In the case of trastuzumab N276Y (antibody), the FcγRIIIa Fold is reported as 0.56 fold.
trastuzumab P230A (antibody) showed a FcγRIIIa Fold of 1.09 fold.
trastuzumab P230A/E233D (antibody) was tested, and the FcγRIIIa Fold was 0.92 fold.
For “trastuzumab P230A/E233D/I332E (antibody)”, the FcγRIIIa Fold was 1.87 fold.
Substance “trastuzumab S239D/A330Y/I332E/K326E (antibody)” has a FcγRIIIa Fold of 64.1 fold.
Substance “trastuzumab S239D/A330Y/I332E/L234I (antibody)” has a FcγRIIIa Fold of 22.4 fold.
“trastuzumab S239D/A330Y/I332E/L235D (antibody)” gave a FcγRIIIa Fold of 7.04 fold.
For “trastuzumab S239D/A330Y/I332E/V240I (antibody)”, the FcγRIIIa Fold was 28 fold.
Substance “trastuzumab S239D/A330Y/I332E/V264T (antibody)” has a FcγRIIIa Fold of 17.7 fold.
With “trastuzumab S239D/I332E/A330I (antibody)” the FcγRIIIa Fold was 59.1 fold.
Work on trastuzumab S324R (antibody) yielded a FcγRIIIa Fold of 0.71 fold.
Substance trastuzumab S324V (antibody) has a FcγRIIIa Fold of 1.17 fold.
With trastuzumab S324Y (antibody) the FcγRIIIa Fold was 0.98 fold.
trastuzumab T335D (antibody) gave a FcγRIIIa Fold of 2.79 fold.
With trastuzumab T335R (antibody) the FcγRIIIa Fold was 2.58 fold.
trastuzumab T335Y (antibody) gave a FcγRIIIa Fold of 1.56 fold.
In the case of trastuzumab V240I/V266I (antibody), the FcγRIIIa Fold is reported as 1.72 fold.
With trastuzumab V273I (antibody) the FcγRIIIa Fold was 0.79 fold.
With trastuzumab V302I (antibody) the FcγRIIIa Fold was 1.01 fold.
Work on trastuzumab V323I (antibody) yielded a FcγRIIIa Fold of 0.83 fold.
With trastuzumab Y278E (antibody) the FcγRIIIa Fold was 0.9 fold.
For trastuzumab Y278T (antibody), the FcγRIIIa Fold was 1.87 fold.
In the case of trastuzumab Y278W (antibody), the FcγRIIIa Fold is reported as 0.41 fold.

These substances were tested against FcγRIIIa on human PBMCs expressing heterozygous V158/F158 FcγRIIIa (human) (UniProt P08637) (assay: cell-based or functional assay).
alemtuzumab S239D/I332E (antibody) was tested, and the ADCC EC50 (DELFIA EuTDA, DoHH-2 target cells) was 3 ng/mL.
alemtuzumab V264I/I332E (antibody) was tested, and the ADCC EC50 (DELFIA EuTDA, DoHH-2 target cells) was 4 ng/mL.

Each substance was assayed against His-tagged V158 FcγRIIIa (human) (UniProt P08637) (assay: SPR, receptor immobilized).
Chain of His-tagged V158 FcγRIIIa (human) (P08637 17-208 F176V limits assumed): as the sequence (P08637 17-208 F176V) above
For WT alemtuzumab (antibody), the Kd was 68 nM.
Substance alemtuzumab I332E (antibody) has a Kd of 31 nM.
alemtuzumab S298A (antibody) showed a Kd of 52 nM.
For “alemtuzumab S298A/E333A/K334A (antibody)”, the Kd was 39 nM.
alemtuzumab V264I (antibody) gave a Kd of 64 nM.
With alemtuzumab V264I/I332E (antibody) the Kd was 17 nM.
